Experimental data from patent US20190161551A1 (Regeneron, published 2019).

B1: H1M8037C (antibody, mouse IgG1, kappa, V domains shown)
VH: QVQLVQSGAEVKKPGASVKVSCKASGYTFTNYDIIWVRQAPGQGLEWMGYINPYNDGTKYNEKFKGRVTMTRDTSTSTVYMELSSLRSEDTAVYYCARLLKYRRFRYYAIDYWGQGTTVTVSS
VL: DIQMTQSPSSLSASVGDRVTITCRTSENVYSNLAWYQQKPGKAPKLLIYAASNLQSGVPSRFSGSGSGTDYTFTISSLQPEDIATYYCQHFWGSPFTFGQGTKLEIKR
notes: captured by anti-mFc in SPR; also called Comparator; comparator anti-TrkB monoclonal antibody
B2: H4H9816P2 (antibody, human IgG4 S228P, kappa, V domains shown)
VH: EVQLVESGGGLVQPGGSLTLSCAASGFNFRDYEMIWVRQTPGKGLEWISYISNSGYTIYYADSVKGRFTISRDNARNSIYLQVNSLRAEDTAVYYCSRRTTMIRGIRAYYYYGLDVWGQGTTVTVSS
VL: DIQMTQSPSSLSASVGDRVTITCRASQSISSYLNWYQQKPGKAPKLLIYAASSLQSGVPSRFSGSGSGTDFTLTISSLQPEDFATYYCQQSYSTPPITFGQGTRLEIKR
notes: Fully human anti-human TrkB agonist antibody, human IgG4 Fc; also called H4H9816P-L1
B3: M2aM14179N (antibody, mouse IgG2a, kappa, V domains shown)
VH: EVQLQQSGPELVKPGASVKISCKASGYTLTDYYMNWVKQSHGKSLEWIGDINPNNGGTSYNQKFKGKATLTVDKSSSTAYMELRSLTSEDSAVYYCARGAYYSNYFDYWGQGTTLTVSS
VL: DIVMSQSPSSLAVSAGEKVTMSCKSSQSLLNSRTRKNYLAWYQQKPGQSPKLLIYWASTRESGVPDRFTGSGSGTDFTLTISSVQAEDLAVYYCKQSYILFTFGSGTQLEIKR
notes: Anti-mouse TrkB antibody from hybridoma, mouse IgG2a Fc; also called surrogate anti-mouse TrkB antibody
B4: M2aM14173N (antibody, mouse IgG2a, kappa, V domains shown)
VH: NVSLVESGGGSVKPGGSLQLSCAASGFTFSSSAMSWIRQTPEMRLEWVATISDRGSYTYYPDSVEGRFTISRDNAKNILYLQMSHLMSEDTAMYYCARGKGEKAYYTAFFAYWGQGSLVTVSA
VL: DIQMTQSPASLSASVGETVTITCRASENIYSYLAWYQQKPGKSPHLLVHNAETLAEGVPSRFSGSGSGPQFSLKINSLQPGDSGTYYCQHHYSSPWTFGGGTKLEIKR
notes: as for B3
B5: H4H9814P (antibody, human IgG4 S228P, kappa, V domains shown)
VH: EVQLVESGGGLVQPGGSLKLSCTASGFTFSGSVIHWVRQASGKGLEWIGRIRNKANSYATAYGASVTGRFTISRDDSKNTAYLQMNSLKTEDTAVYYCTFPGVVGRGGFDYWGQGTLVTVSS
VL: DIVMTQSPDSLAVSLGEGATINCMSSQSVLFSSNNKNYLAWYQQKPGQPPKLLFYWASTRESGVPDRFGGSGSGTDFSLTINSLQTEDVAVYYCLQYYSIPWTFGQGTKVEIKR
notes: Fully human anti-human TrkB agonist antibody, human IgG4 Fc; also called H4H9814P-L1
B6: H4H9780P (antibody, human IgG4 S228P, kappa, V domains shown)
VH: QVQLVESGGGVVQPGRSLRLSCAASGFSFSSFGMHWVRQAPGKGLEWVSVISYDGINTYYTDSVKGRFTISRDNSKNTLYLQMNGLRAEDTALYYCVQGSIGTVFEYWGQGTLVTVSS
VL: DIQMTQSPSSLSASVGDRVTITCRASQGISNYLAWYQQKPGKVPKLLIYAASTLQSGVPSRFGGSGSGTDFTLTISSLQPEDVATYYCQKYTSAPFTFGPGTKVDIKR
notes: Fully human anti-human TrkB agonist antibody, human IgG4 Fc; also called H4H9780P-L1

How the values were obtained:
[1] = biological target: human TrkB expressed on HEK293/SRE-Luc/hTrkB cells (human, UniProt Q16620 32-822); experiment: cell-based or functional assay
[2] = biological target: mouse TrkB extracellular domain fused to the transmembrane and cytoplasmic domains of human TrkB, expressed … (mouse; human, UniProt Q16620 431-822, limits assumed); experiment: cell-based or functional assay
mouse TrkB.hFc [3] = biological target: T1, mouse TrkB.hFc (mouse); experiment: BLI Octet, captured mTrkB.hFc, 300 nM mAb (NT-4 run)
T1 construct: also called mTrkB.hFc; mTrkB-hFc
Description: Blocking of BDNF or NT-4 from binding to TrkB by anti-human TrkB or anti-mouse TrkB antibodies was evaluated using a real-time bio-layer interferometry (BLI) based Octet HTX instrument. The entire study was performed in 10 mM HEPES pH 7.4, 300 mM NaCl, 3 mM EDTA, 1 mg/mL BSA, 0.02% NaN3 and 0.05% v/v Surfactant Tween-20 (HBS-EBT running buffer) at 25° C. All the samples were dispensed in a 384 tilted well plate and the plate was placed on the orbital shaker with the shake speed of 1000 rpm. hTrkB.mFc was captured on anti-mFc (AMC) Octet sensors while hTrkB.hFc or mTrkB.hFc were captured on anti-hFc (AHC) Octet sensors by dipping in wells containing 10 μg/mL of TrkB reagents for 2 minutes. hTrkB.mFc or hTrkB.hFc captured Octet biosensors were saturated by dipping in wells containing 300 nM of different TrkB mAbs for 4 minutes followed by dipping Octet biosensors in wells containing 20 nM of BDNF, hNT-4, or mNT-4 for 2 minutes. Binding of BDNF, hNT-4, or mNT-4 to the complex of TrkB and different TrkB mAbs was determined using Scrubber 2.0c analysis software.

mouse TrkB.hFc [4] = biological target: T1, mouse TrkB.hFc; experiment: BLI Octet, captured mTrkB.hFc saturated with BDNF, 300 nM mAb
Description: (§1) Blocking of anti-human TrkB or anti-mouse TrkB antibodies from binding to TrkB by BDNF or NT-4 was evaluated using a real-time bio-layer interferometry (BLI) based Octet HTX instrument. The entire study was performed in 10 mM HEPES pH 7.4, 300 mM NaCl, 3 mM EDTA, 1 mg/mL BSA, 0.02% NaN3 and 0.05% v/v Surfactant Tween-20 (HBS-EBT running buffer) at 25° C. All the samples were dispensed in a 384 tilted well plate and the plate was placed on the orbital shaker with the shake speed of 1000 rpm. hTrkB.mFc was captured on anti-mFc (AMC) Octet sensors while hTrkB.hFc or mTrkB.hFc were captured on anti-hFc (AHC) Octet sensors by dipping in wells containing 10 μg/mL of TrkB reagents for 2 minutes. hTrkB.mFc or hTrkB.hFc captured Octet biosensors were saturated by dipping in wells containing 20 nM of BDNF, hNT-4, or mNT-4 for 2 minutes followed by dipping Octet biosensors in wells containing 300 nM of different TrkB mAbs for 4 minutes. Binding of TrkB mAbs to the complex of TrkB and BDNF, hNT-4, or mNT-4 was determined using Scrubber 2.0c analysis software.

[5] = biological target: T2, rat TrkB extracellular domain expressed with a C-terminal myc-myc-hexahistidine tag (rat, UniProt Q63604 32-429); experiment: blocking ELISA, rat TrkB.mmh pre-mixed with mAb, plate-coated BDNF
T2 construct: also called rTrkB.mmH; rTRKB.mmH
Description: (§2) Experiments were carried out using the following procedure. Human BDNF was coated at a concentration of 0.5 μg/mL (for blocking mouse TrkB.hFc interaction) or 0.3 μg/mL (for blocking rat TrkB.mmh interaction) in PBS on 96-well microtiter plate and incubated overnight at 4° C. […] In a 96-well dilution plate, 850 pM mouse TrkB.hFc or rat TrkB.mmh was mixed with the three-fold serially diluted anti-mouse TrkB antibodies and control antibody. The final antibody concentrations ranged from 1.69 pM to 100 nM. The protein-antibody mix was incubated at room temperature (RT) for 1 hour. The pre-bound mix was then transferred in duplicates to microtiter plates coated with BDNF. A control containing assay buffer alone was included to calculate the baseline of the assay. The ELISA plates were incubated at RT for 1 hour and then washed with plate washing solution. Plate-bound mouse TrkB.hFc was detected with HRP-conjugated goat anti-human Fcγ fragment specific antibody (Jackson Immunoresearch) and rat TrkB.mmh was detected with HRP-conjugated anti-histidine antibody (Qiagen). The plates were incubated with detection antibody for 1 hour at RT and then washed with plate washing solution. The assay plates were developed with TMB colorimetric substrates according to the manufacturer's recommended procedure.
(§3) The absorbance at 450 nm for each well was recorded and plotted as a function of the concentration of antibody. Data was analyzed in GraphPad Prism software using a four-parameter logistic equation over an 11-point dose response curve and IC₅₀ values were calculated. […] Percent blockade at maximum concentration of the antibody tested was calculated as an indicator of the ability of the antibodies to block the binding of TrkB to BDNF on the plate relative to the baseline of the assay. Binding signal of 850 pM mouse or rat TrkB in absence of the antibody was defined as 100% binding or 0% blocking. The baseline signal of assay buffer alone was defined as 0% binding or 100% blocking.

mouse TrkB.hFc [6] = biological target: T1, mouse TrkB.hFc; experiment: blocking ELISA, mouse TrkB.hFc pre-mixed with mAb, plate-coated BDNF
Description: as §2, §3

[7] = biological target: T3, human TrkB extracellular domain expressed with a C-terminal mouse IgG2a Fc tag (human); experiment: BLI Octet, captured hTrkB.mFc, 300 nM mAb, no ligand
T3 construct: also called hTrkB-mFc; hTrkB.mFc
Description: as §1

[8] = biological target: T3, human TrkB extracellular domain …; experiment: BLI Octet, captured hTrkB.mFc, 300 nM mAb (hNT-4 run)
Description: as §1

T3 sequence (chain, as listed by the source limits assumed): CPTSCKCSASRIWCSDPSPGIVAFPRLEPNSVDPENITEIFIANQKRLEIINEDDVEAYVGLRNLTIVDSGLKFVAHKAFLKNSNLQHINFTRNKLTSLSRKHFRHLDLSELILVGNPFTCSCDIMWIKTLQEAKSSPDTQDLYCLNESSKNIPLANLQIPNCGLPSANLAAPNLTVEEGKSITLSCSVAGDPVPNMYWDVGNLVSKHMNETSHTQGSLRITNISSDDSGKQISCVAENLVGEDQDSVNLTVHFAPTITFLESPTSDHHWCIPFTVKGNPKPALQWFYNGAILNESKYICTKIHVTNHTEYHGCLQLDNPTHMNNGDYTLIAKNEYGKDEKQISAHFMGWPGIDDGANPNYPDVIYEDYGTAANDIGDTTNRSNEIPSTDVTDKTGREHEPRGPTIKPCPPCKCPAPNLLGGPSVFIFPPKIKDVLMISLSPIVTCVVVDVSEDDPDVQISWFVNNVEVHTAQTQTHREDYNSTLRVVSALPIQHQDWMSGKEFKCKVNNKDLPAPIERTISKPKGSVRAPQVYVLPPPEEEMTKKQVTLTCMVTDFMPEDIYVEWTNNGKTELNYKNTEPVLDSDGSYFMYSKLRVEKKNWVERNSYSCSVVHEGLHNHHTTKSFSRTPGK
human TrkB expressed on HEK293/SRE-Luc/hTrkB cells, sequence (Q16620 32-822): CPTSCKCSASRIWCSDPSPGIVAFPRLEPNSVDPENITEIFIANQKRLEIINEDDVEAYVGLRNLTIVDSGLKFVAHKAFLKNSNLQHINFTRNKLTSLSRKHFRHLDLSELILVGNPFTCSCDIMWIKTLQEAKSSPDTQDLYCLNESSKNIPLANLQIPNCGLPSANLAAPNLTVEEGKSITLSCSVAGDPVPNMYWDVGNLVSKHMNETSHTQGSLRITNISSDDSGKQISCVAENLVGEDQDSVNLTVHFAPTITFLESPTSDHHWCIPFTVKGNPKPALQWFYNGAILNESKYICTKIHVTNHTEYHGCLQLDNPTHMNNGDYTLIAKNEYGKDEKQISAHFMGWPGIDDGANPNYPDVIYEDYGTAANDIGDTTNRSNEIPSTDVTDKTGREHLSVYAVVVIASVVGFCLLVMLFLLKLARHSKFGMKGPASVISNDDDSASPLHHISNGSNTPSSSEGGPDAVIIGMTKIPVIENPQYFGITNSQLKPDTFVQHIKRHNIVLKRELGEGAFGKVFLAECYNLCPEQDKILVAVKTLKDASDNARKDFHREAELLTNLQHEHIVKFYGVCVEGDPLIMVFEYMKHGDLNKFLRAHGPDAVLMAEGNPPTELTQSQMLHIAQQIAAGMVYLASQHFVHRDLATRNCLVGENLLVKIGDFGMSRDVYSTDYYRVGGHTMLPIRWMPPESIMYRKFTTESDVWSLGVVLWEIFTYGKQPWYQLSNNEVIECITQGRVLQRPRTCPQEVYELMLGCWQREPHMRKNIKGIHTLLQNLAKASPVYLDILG
mouse TrkB extracellular domain fused to the transmembrane and cytoplasmic domains of human TrkB, expressed …, sequence (Q16620 other isoform, or with tags, fused parts or gaps limits assumed, form in doubt): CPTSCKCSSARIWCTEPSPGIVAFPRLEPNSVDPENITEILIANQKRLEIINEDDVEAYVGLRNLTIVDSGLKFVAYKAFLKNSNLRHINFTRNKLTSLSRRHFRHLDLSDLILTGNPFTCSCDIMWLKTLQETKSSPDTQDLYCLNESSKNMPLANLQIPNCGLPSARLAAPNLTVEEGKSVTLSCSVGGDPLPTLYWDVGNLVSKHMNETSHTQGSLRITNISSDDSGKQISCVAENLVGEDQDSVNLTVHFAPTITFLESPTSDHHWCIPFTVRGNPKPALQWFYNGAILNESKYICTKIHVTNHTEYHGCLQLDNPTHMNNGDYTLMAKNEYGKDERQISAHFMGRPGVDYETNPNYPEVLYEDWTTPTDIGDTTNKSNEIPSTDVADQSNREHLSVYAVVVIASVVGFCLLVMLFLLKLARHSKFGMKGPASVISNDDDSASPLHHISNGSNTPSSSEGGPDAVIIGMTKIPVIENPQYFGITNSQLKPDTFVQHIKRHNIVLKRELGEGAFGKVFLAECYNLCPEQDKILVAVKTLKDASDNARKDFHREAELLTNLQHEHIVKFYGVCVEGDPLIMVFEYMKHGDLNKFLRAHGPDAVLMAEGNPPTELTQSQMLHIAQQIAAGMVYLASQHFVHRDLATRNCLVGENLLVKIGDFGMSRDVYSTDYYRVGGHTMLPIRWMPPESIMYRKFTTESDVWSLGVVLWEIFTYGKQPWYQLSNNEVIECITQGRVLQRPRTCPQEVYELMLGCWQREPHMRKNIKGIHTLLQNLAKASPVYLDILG
T1 sequence (chain, as listed by the source limits assumed): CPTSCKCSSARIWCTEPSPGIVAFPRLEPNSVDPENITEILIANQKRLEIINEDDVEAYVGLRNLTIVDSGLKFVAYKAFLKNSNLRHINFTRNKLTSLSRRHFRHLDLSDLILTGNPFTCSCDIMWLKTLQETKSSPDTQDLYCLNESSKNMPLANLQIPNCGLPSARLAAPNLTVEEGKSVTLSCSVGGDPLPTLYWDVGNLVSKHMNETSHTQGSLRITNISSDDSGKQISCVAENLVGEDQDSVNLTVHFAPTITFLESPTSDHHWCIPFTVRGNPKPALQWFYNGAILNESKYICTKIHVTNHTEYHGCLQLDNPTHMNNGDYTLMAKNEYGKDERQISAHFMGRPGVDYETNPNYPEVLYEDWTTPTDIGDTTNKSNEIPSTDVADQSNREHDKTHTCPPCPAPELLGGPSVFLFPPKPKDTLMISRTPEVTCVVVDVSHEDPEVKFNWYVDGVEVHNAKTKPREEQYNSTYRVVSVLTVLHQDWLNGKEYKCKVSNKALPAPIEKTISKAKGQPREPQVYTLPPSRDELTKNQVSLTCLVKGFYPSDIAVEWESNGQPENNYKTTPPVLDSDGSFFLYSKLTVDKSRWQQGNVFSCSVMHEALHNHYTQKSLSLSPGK
T2 sequence (Q63604 other isoform, or with tags, fused parts or gaps): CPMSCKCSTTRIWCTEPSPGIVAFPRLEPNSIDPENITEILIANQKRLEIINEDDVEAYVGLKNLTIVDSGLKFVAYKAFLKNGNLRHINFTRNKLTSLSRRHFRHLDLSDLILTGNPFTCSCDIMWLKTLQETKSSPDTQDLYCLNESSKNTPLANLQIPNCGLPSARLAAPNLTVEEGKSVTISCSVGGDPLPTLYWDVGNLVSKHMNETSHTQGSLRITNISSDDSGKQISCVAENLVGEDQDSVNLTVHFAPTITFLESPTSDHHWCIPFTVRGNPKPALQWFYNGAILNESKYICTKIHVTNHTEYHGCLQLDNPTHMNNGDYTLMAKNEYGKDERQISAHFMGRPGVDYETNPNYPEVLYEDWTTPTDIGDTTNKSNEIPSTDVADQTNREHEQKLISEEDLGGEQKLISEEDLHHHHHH

Binder | Activation (%), SRE-luciferase, 100 pM BDNF [1] [%] | Activation (%), SRE-luciferase, No BDNF [1] [%] | EC50 (M), SRE-luciferase, 100 pM BDNF [1] [M] | EC50 (M), SRE-luciferase, No BDNF [1] [M] | Activation (%), SRE-luciferase, 100 pM BDNF [2] [%] | Activation (%), SRE-luciferase, No BDNF [2] [%] | EC50 (M), SRE-luciferase, 100 pM BDNF [2] [M] | EC50 (M), SRE-luciferase, No BDNF [2] [M] | mAb Binding (nm) (mouse TrkB.hFc [3]) | antibody Binding (nm) (mouse TrkB.hFc [4]) | % Blockade with 100 nM antibody [5] [%] | IC50 [5] [pM] | % Blockade with 100 nM antibody (mouse TrkB.hFc [6]) [%] | IC50 (mouse TrkB.hFc [6]) [pM] | antibody Binding (nm) [7] [nm] | mAb Binding (nm) [8] [nm]
B1 | 79 | 80 | 1.1e-10 | 5.7e-11 | 69 | 85 | 4.2e-11 | 4.3e-11 | 0.4 | 0.06 | 83.3 | 1420 | 91.5 | 180 | – | –
B2 | – | – | – | – | – | – | – | – | – | – | – | – | – | – | 0.19 | 0.18
B3 | 52 | 4 | – | – | 75 | 87 | 2.1e-11 | 3.4e-11 | 0.41 | 0.44 | -38.1 | – | 11.6 | – | – | –
B4 | 59 | 2 | – | – | 74 | 94 | 1.7e-11 | 3.6e-11 | 0.413 | 0.38 | 80.7 | 3810 | 29.7 | – | – | –
B5 | – | – | – | – | – | – | – | – | – | – | – | – | – | – | 0.18 | 0.18
B6 | – | – | – | – | – | – | – | – | – | – | – | – | – | – | 0.18 | 0.18
